Test results reported in the supplement of paper PMC11246515.
± gives the standard deviation of the averaged measurements.

Test: total protein half-life in vivo (active degradation + dilution); higher = more stable protein
[1] = E. coli NCM3722 delta-clpP, growth: N-lim chemostat, doubling time 6 h
[2] = E. coli NCM3722 delta-hslV, growth: N-lim chemostat, doubling time 6 h
[3] = wild type E. coli NCM3722, growth: N-lim chemostat, doubling time 6 h
[4] = wild type E. coli NCM3722, growth: N-lim chemostat, doubling time 12 h
[5] = wild type E. coli NCM3722, growth: P-lim chemostat, doubling time 6 h
[6] = wild type E. coli NCM3722, growth: P-lim chemostat, doubling time 12 h
[7] = E. coli NCM3722 delta-clpP delta-lon delta-hslV, growth: N-lim chemostat, doubling time 6 h
[8] = E. coli NCM3722 delta-lon, growth: N-lim chemostat, doubling time 6 h
[9] = E. coli NCM3722 delta-smpB, growth: N-lim chemostat, doubling time 6 h
[10] = wild type E. coli NCM3722, growth: C-lim chemostat, doubling time 3 h
[11] = wild type E. coli NCM3722, growth: C-lim chemostat, doubling time 6 h
[12] = wild type E. coli NCM3722, growth: C-lim chemostat, doubling time 12 h

Sequence	total protein half-life in vivo [1] [h]	total protein half-life in vivo [2] [h]	total protein half-life in vivo [3] [h]	total protein half-life in vivo [4] [h]	total protein half-life in vivo [5] [h]	total protein half-life in vivo [6] [h]	total protein half-life in vivo [7] [h]	total protein half-life in vivo [8] [h]	total protein half-life in vivo [9] [h]	total protein half-life in vivo [10] [h]	total protein half-life in vivo [11] [h]	total protein half-life in vivo [12] [h]
MKKPLRQQNRQIISYVPRTEPAPPEHAIKMDSFRDVWMLRGKYVAFVLMGESFLRSPAFTVPESAQRWANQIRQEGEVTE [P0AE60]	5.19	3.87	3.66	6.6	4.26 ± 1.1	9.35						
MSLAGKKIVLGVSGGIAAYKTPELVRRLRDRGADVRVAMTEAAKAFITPLSLQAVSGYPVSDSLLDPAAEAAMGHIELGKWADLVILAPATADLIARVAAGMANDLVSTICLATPAPVAVLPAMNQQMYRAAATQHNLEVLASRGLLIWGPDSGSQACGDIGPGRMLDPLTIVDMAVAHFSPVNDLKHLNIMITAGPTREPLDPVRYISNHSSGKMGFAIAAAAARRGANVTLVSGPVSLPTPPFVKRVDVMTALEMEAAVNASVQQQNIFIGCAAVADYRAATVAPEKIKKQATQGDELTIKMVKNPDIVAGVAALKDHRPYVVGFAAETNNVEEYARQKRIRKNLDLICANDVSQPTQGFNSDNNALHLFWQDGDKVLPLERKELLGQLLLDEIVTRYDEKNRR [P0ABQ0]	6.16 ± 0.64	5.48 ± 0.55	4.7 ± 0.6	8.72 ± 0.93	6.17 ± 0.24	11.8 ± 0.15	6.25 ± 0.61	5.48 ± 0.67	4.75 ± 0.079	3.15 ± 0.096	5.63 ± 0.26	12.5 ± 3.3
MTDQSHQCVIIGIAGASASGKSLIASTLYRELREQVGDEHIGVIPEDCYYKDQSHLSMEERVKTNYDHPSAMDHSLLLEHLQALKRGSAIDLPVYSYVEHTRMKETVTVEPKKVIILEGILLLTDARLRDELNFSIFVDTPLDICLMRRIKRDVNERGRSMDSVMAQYQKTVRPMFLQFIEPSKQYADIIVPRGGKNRIAIDILKAKISQFFE [P0A8F4]	4.6 ± 0.34		4.36 ± 0.07	6.72 ± 0.17	5.11 ± 0.44	9.61 ± 2.1	5.42 ± 0.4	4.87 ± 1.3	4.376 ± 0.027	2.86 ± 0.035	5.074 ± 0.037	9.37 ± 0.41
MSSLQILQGTFRLSDTKTLQLPQLTLNAGDSWAFVGSNGSGKSALARALAGELPLLKGERQSQFSHITRLSFEQLQKLVSDEWQRNNTDMLGPGEDDTGRTTAEIIQDEVKDAPRCMQLAQQFGITALLDRRFKYLSTGETRKTLLCQALMSEPDLLILDEPFDGLDVASRQQLAERLASLHQSGITLVLVLNRFDEIPEFVQFAGVLADCTLAETGAKEELLQQALVAQLAHSEQLEGVQLPEPDEPSARHALPANEPRIVLNNGVVSYNDRPILNNLSWQVNPGEHWQIVGPNGAGKSTLLSLVTGDHPQGYSNDLTLFGRRRGSGETIWDIKKHIGYVSSSLHLDYRVSTTVRNVILSGYFDSIGIYQAVSDRQQKLVQQWLDILGIDKRTADAPFHSLSWGQQRLALIVRALVKHPTLLILDEPLQGLDPLNRQLIRRFVDVLISEGETQLLFVSHHAEDAPACITHRLEFVPDGGLYRYVLTKIY	4.73 ± 1.6	3.5748 ± 0.0019	3.942 ± 0.016	5.56 ± 0.14	5.68 ± 0.2	12 ± 0.93	4.48 ± 0.27	4.54 ± 0.7	4 ± 0.68	2.84 ± 0.087	5.233 ± 0.03	9.21 ± 0.47
MVSRYVPDMGDLIWVDFDPTKGSEQAGHRPAVVLSPFMYNNKTGMCLCVPCTTQSKGYPFEVVLSGQERDGVALADQVKSIAWRARGATKKGTVAPEELQLIKAKINVLIG [P0AE70]		6.264 ± 0.046	4.02 ± 0.46	9.87 ± 1.7	6.19	11 ± 0.37	6.61 ± 0.43	6.6 ± 0.43	5.59 ± 0.098	3.16 ± 0.28	5.35 ± 0.39	
MKKIAITCALLSSLVASSVWADAASDLKSRLDKVSSFHASFTQKVTDGSGAAVQEGQGDLWVKRPNLFNWHMTQPDESILVSDGKTLWFYNPFVEQATATWLKDATGNTPFMLIARNQSSDWQQYNIKQNGDDFVLTPKASNGNLKQFTINVGRDGTIHQFSAVEQDDQRSSYQLKSQQNGAVDAAKFTFTPPQGVTVDDQRK	5.76 ± 1	7.06 ± 1.3	6.25 ± 0.41	12.5 ± 0.7	5.978 ± 0.007	12.124 ± 0.011	4.62 ± 0.5			3.364 ± 0.025	5.679 ± 0.056	9.08 ± 0.39
MADTKAKLTLNGDTAVELDVLKGTLGQDVIDIRTLGSKGVFTFDPGFTSTASCESKITFIDGDEGILLHRGFPIDQLATDSNYLEVCYILLNGEKPTQEQYDEFKTTVTRHTMIHEQITRLFHAFRRDSHPMAVMCGITGALAAFYHDSLDVNNPRHREIAAFRLLSKMPTMAAMCYKYSIGQPFVYPRNDLSYAGNFLNMMFSTPCEPYEVNPILERAMDRILILHADHEQNASTSTVRTAGSSGANPFACIAAGIASLWGPAHGGANEAALKMLEEISSVKHIPEFVRRAKDKNDSFRLMGFGHRVYKNYDPRATVMRETCHEVLKELGTKDDLLEVAMELENIALNDPYFIEKKLYPNVDFYSGIILKAMGIPSSMFTVIFAMARTVGWIAHWSEMHSDGMKIARPRQLYTGYEKRDFKSDIKR [P0ABH7]	3.04 ± 0.12	2.942 ± 0.0099	2.94 ± 0.063	4.55 ± 0.57	5.57 ± 0.27	10.5 ± 0.35	4.1 ± 0.75	3.4 ± 0.35	3.08 ± 0.34	3.18 ± 0.15	5.24 ± 0.23	9.82 ± 1.7
MKGRWVKYLLMGTVVAMLAACSSKPTDRGQQYKDGKFTQPFSLVNQPDAVGAPINAGDFAEQINHIRNSSPRLYGNQSNVYNAVQEWLRAGGDTRNMRQFGIDAWQMEGADNYGNVQFTGYYTPVIQARHTRQGEFQYPIYRMPPKRGRLPSRAEIYAGALSDKYILAYSNSLMDNFIMDVQGSGYIDFGDGSPLNFFSYAGKNGHAYRSIGKVLIDRGEVKKEDMSMQAIRHWGETHSEAEVRELLEQNPSFVFFKPQSFAPVKGASAVPLVGRASVASDRSIIPPGTTLLAEVPLLDNNGKFNGQYELRLMVALDVGGAIKGQHFDIYQGIGPEAGHRAGWYNHYGRVWVLKTAPGAGNVFSG [P0A935]	4.22 ± 0.17	3.87 ± 0.69	2.99 ± 0.4	3.79 ± 0.35	3.7 ± 0.37	6.57 ± 0.27	5.19 ± 1.9	4.05 ± 0.22	3 ± 0.41	1.877 ± 0.013	2.8 ± 0.13	4.23 ± 0.38
MKILVYGINYSPELTGIGKYTGEMVEWLAAQGHEVRVITAPPYYPQWQVGENYSAWRYKREEGAATVWRCPLYVPKQPSTLKRLLHLGSFAVSSFFPLMAQRRWKPDRIIGVVPTLFCAPGMRLLAKLSGARTVLHIQDYEVDAMLGLGLAGKGKGGKVAQLATAFERSGLHNVDNVSTISRSMMNKAIEKGVAAENVIFFPNWSEIARFQHVADADVDALRNQLDLPDNKKIILYSGNIGEKQGLENVIEAADRLRDEPLIFAIVGQGGGKARLEKMAQQRGLRNMQFFPLQSYDALPALLKMGDCHLVVQKRGAADAVLPSKLTNILAVGGNAVITAEAYTELGQLCETFPGIAVCVEPESVEALVAGIRQALLLPKHNTVAREYAERTLDKENVLRQFINDIRG							4.84		5.37			
MAKAPKRAFVCNECGADYPRWQGQCSACHAWNTITEVRLAASPMVARNERLSGYAGSAGVAKVQKLSDISLEELPRFSTGFKEFDRVLGGGVVPGSAILIGGNPGAGKSTLLLQTLCKLAQQMKTLYVTGEESLQQVAMRAHRLGLPTDNLNMLSETSIEQICLIAEEEQPKLMVIDSIQVMHMADVQSSPGSVAQVRETAAYLTRFAKTRGVAIVMVGHVTKDGSLAGPKVLEHCIDCSVLLDGDADSRFRTLRSHKNRFGAVNELGVFAMTEQGLREVSNPSAIFLSRGDEVTSGSSVMVVWEGTRPLLVEIQALVDHSMMANPRRVAVGLEQNRLAILLAVLHRHGGLQMADQDVFVNVVGGVKVTETSADLALLLAMVSSLRDRPLPQDLVVFGEVGLAGEIRPVPSGQERISEAAKHGFRRAIVPAANVPKKAPEGMQIFGVKKLSDALSVFDDL	4.7 ± 0.74	4.63 ± 1.1	3.65 ± 0.14	5.76 ± 0.49	5.64 ± 0.66	10.2 ± 0.85	4.95 ± 0.18		3.88 ± 0.27	2.88 ± 0.043	4.894 ± 0.039	8.52 ± 1.8
MNVNSSSNRGEAILAALKTQFPGAVLDEERQTPEQVTITVKINLLPDVVQYLYYQHDGWLPVLFGNDERTLNGHYAVYYALSMEGAEKCWIVVKALVDADSREFPSVTPRVPAAVWGEREIRDMYGLIPVGLPDQRRLVLPDDWPEDMHPLRKDAMDYRLRPEPTTDSETYPFINEGNSDARVIPVGPLHITSDEPGHFRLFVDGEQIVDADYRLFYVHRGMEKLAETRMGYNEVTFLSDRVCGICGFAHSVAYTNSVENALGIEVPQRAHTIRSILLEVERLHSHLLNLGLSCHFVGFDTGFMQFFRVREKSMTMAELLIGSRKTYGLNLIGGVRRDILKEQRLQTLKLVREMRADVSELVEMLLATPNMEQRTQGIGILDRQIARDLRFDHPYADYGNIPKTLFTFTGGDVFSRVMVRVKETFDSLAMLEFALDNMPDTPLLTEGFSYKPHAFALGFVEAPRGEDVHWSMLGDNQKLFRWRCRAATYANWPVLRYMLRGNTVSDAPLIIGSLDPCYSCTDRVTLVDVRKRQSKTVPYKEIERYGIDRNRSPLK		5.63	5.27				7.09					
MIRFEHVSKAYLGGRQALQGVTFHMQPGEMAFLTGHSGAGKSTLLKLICGIERPSAGKIWFSGHDITRLKNREVPFLRRQIGMIFQDHHLLMDRTVYDNVAIPLIIAGASGDDIRRRVSAALDKVGLLDKAKNFPIQLSGGEQQRVGIARAVVNKPAVLLADEPTGNLDDALSEGILRLFEEFNRVGVTVLMATHDINLISRRSYRMLTLSDGHLHGGVGHE [P0A9R7]		5.57 ± 0.067	5.48 ± 0.17	9.44 ± 1.1	5.26 ± 0.17	11.9 ± 2.3	5.85 ± 0.08	5.62 ± 0.4	5.32 ± 0.056	2.762 ± 0.02	5.52 ± 0.12	10.1 ± 0.31
MRKFTLNIFTLSLGLAVMPMVEAAPTAQQQLLEQVRLGEATHREDLVQQSLYRLELIDPNNPDVVAARFRSLLRQGDIDGAQKQLDRLSQLAPSSNAYKSSRTTMLLSTPDGRQALQQARLQATTGHAEEAVASYNKLFNGAPPEGDIAVEYWSTVAKIPARRGEAINQLKRINADAPGNTGLQNNLALLLFSSDRRDEGFAVLEQMAKSNAGREGASKIWYGQIKDMPVSDASVSALKKYLSIFSDGDSVAAAQSQLAEQQKQLADPAFRARAQGLAAVDSGMAGKAIPELQQAVRANPKDSEALGALGQAYSQKGDRANAVANLEKALALDPHSSNNDKWNSLLKVNRYWLAIQQGDAALKANNPDRAERLFQQARNVDNTDSYAVLGLGDVAMARKDYPAAERYYQQTLRMDSGNTNAVRGLANIYRQQSPEKAEAFIASLSASQRRSIDDIERSLQNDRLAQQAEALENQGKWAQAAALQRQRLALDPGSVWITYRLSQDLWQAGQRSQADTLMRNLAQQKSNDPEQVYAYGLYLSGHDQDRAALAHINSLPRAQWNSNIQELVNRLQSDQVLETANRLRESGKEAEAEAMLRQQPPSTRIDLTLADWAQQRRDYTAARAAYQNVLTREPANADAILGLTEVDIAAGDKAAARSQLAKLPATDNASLNTQRRVALAQAQLGDTAAAQRTFNKLIPQAKSQPPSMESAMVLRDGAKFEAQAGDPTQALETYKDAMVASGVTTTRPQDNDTFTRLTRNDEKDDWLKRGVRSDAADLYRQQDLNVTLEHDYWGSSGTGGYSDLKAHTTMLQVDAPYSDGRMFFRSDFVNMNVGSFSTNADGKWDDNWGTCTLQDCSGNRSQSDSGASVAVGWRNDVWSWDIGTTPMGFNVVDVVGGISYSDDIGPLGYTVNAHRRPISSSLLAFGGQKDSPSNTGKKWGGVRADGVGLSLSYDKGEANGVWASLSGDQLTGKNVEDNWRVRWMTGYYYKVINQNNRRVTIGLNNMIWHYDKDLSGYSLGQGGYYSPQEYLSFAIPVMWRERTENWSWELGASGSWSHSRTKTMPRYPLMNLIPTDWQEEAARQSNDGGSSQGFGYTARALLERRVTSNWFVGTAIDIQQAKDYAPSHFLLYVRYSAAGWQGDMDLPPQPLIPYADW	6.7 ± 0.36	6.74 ± 0.87	6.4455 ± 0.00019	13.8 ± 0.91	6.24 ± 0.29	13.3 ± 0.38	6.16 ± 0.12	6.13 ± 0.61	5.66 ± 0.14	3.2 ± 0.16	6.39 ± 0.4	11.2 ± 1.1
